Series [1] concerns the target T1, variant nuclease L38G combination (P14R, D32R, I61R, E311R, L38G).
T1 chain: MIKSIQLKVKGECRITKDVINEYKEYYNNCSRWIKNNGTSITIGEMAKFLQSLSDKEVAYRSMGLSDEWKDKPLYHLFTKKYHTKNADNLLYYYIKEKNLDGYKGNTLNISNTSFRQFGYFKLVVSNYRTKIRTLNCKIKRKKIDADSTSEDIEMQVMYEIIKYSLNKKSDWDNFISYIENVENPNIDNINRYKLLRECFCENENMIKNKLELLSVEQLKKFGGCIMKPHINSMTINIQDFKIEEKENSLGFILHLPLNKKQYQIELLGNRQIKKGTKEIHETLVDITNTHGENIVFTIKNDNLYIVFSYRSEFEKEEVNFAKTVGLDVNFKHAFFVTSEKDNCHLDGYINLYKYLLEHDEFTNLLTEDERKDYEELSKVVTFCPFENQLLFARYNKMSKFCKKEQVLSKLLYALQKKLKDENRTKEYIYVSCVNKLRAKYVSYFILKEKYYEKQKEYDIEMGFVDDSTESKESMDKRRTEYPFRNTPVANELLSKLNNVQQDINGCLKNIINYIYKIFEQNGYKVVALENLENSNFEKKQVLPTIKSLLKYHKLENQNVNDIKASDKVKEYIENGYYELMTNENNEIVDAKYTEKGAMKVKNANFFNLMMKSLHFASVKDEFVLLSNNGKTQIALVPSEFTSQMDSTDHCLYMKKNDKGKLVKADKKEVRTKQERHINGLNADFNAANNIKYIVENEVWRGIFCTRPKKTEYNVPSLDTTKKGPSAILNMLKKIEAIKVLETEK
Kind of series: cell_activity; PAM 5'-TTTG-3'. As to conditions: tags: pcDNA3.1 expression. The method in brief: (§1)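 HEK293T cells were lipofected with nuclease plasmid (pcDNA3.1 backbone) plus RNA guide plasmid, with guide omitted in negative controls. After ~72 h cells were lysed in QuickExtract and % indels were derived from NGS reads, averaged over two bioreplicates and two technical replicates.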

The target of series [2] is T2, variant nuclease E736G combination (P14R, D32R, I61R, E311R, E736G).
T2 chain: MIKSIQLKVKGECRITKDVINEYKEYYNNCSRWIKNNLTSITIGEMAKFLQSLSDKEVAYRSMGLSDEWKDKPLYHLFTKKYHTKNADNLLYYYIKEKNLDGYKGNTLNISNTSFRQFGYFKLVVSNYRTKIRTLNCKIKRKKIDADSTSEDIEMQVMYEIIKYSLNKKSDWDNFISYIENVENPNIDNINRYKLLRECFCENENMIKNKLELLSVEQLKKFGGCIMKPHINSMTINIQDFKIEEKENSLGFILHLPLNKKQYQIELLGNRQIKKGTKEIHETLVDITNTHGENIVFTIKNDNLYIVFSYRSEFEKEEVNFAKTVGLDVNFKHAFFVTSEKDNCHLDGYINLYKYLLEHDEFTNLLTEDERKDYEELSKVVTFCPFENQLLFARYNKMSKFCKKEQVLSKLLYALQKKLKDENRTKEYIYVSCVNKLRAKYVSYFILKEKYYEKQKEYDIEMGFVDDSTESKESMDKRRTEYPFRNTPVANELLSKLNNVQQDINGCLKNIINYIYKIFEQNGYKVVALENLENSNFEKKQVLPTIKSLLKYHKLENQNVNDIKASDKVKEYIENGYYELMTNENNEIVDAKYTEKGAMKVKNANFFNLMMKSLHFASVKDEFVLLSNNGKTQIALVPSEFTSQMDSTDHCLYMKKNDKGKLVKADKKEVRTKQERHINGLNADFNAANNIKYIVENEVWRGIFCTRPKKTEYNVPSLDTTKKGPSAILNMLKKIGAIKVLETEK
Kind of series: cell_activity; PAM 5'-TTTG-3'. To be noted: tags: pcDNA3.1 expression. The method in brief:
as §1

We go through 1 molecule from patent publication US20240035010, “COMPOSITIONS COMPRISING A VARIANT POLYPEPTIDE AND USES THEREOF” (Arbor Biotechnologies, Inc., published 2024).

B1: AAVS1 crRNA ; AAVS1 target (ssRNA ; dsDNA)
RNA: CUUGUUGUAUAUGUCCUUUUAUAGGUAUUAAACAACUGAGAAUGGUGCGUCCUAGG
DNA 1: TGAGAATGGTGCGTCCTAGG
DNA 2: CCTAGGACGCACCATTCTCA
For B1, the indel activity in series [1] is 1.28 fold of WT; in series [2], 5.28 fold of WT.
